Reference: the supplement of paper PMC6757056
± gives the standard deviation of the averaged measurements.

B1: library; a variant is named by its letters at N, in order (parent)
chain: GCUGUCACCGGUGCUUGGUACGUUAUAUUCAGCCGGUCUGAUGAGUCUNNNNNNAGACGAAACAGC

Key:
[1] = variants of: B1; assay: normalized RNA/DNA level without ligand (relative to sTRSVctl = 100) (log10 (% of sTRSVctl)); HEK293T overexpressing SLC46A1; higher = less ribozyme self-cleavage, higher mRNA level; details: without (6R,S)-folinic acid; ligand present: no
Outline: (§1)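 Ribozyme switch library plasmids with mCherry reporters (eGFP in certain ligand experiments) went into HEK293T cells at 4 µg per 6-well well. Where ligand was used, it was applied 1 h before transfection, and total RNA was extracted with EDTA 72 h later for reverse transcription, amplification, barcoding and sequencing. RNA level is the RNA-to-DNA read ratio normalized to a spiked-in non-cleaving sequence or to the leading sequences, then scaled and log-transformed. Scaling was ×100 with log10, the leading set comprised 25 sequences, and the cutoff was ≥100 DNA reads.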

[2] = variants of: B1; assay: normalized RNA/DNA level with ligand (relative to sTRSVctl = 100) (log10 (% of sTRSVctl)); HEK293T overexpressing SLC46A1; ligand concentration (+) RNA-Seq: 6 mM; higher = less ribozyme self-cleavage, higher mRNA level; details: with (6R,S)-folinic acid; ligand present: yes
Outline: as §1

With GCUGUCACCGGUGCUUGGUACGUUAUAUUCAGCCGGUCUGAUGAGUCUAACGAUAGACGAAACAGC [AACGAU] the “normalized RNA/DNA level without ligand (log10)” value [1] was 1.959 ± 0.018 and the “normalized RNA/DNA level with ligand (log10)” value [2] was 2 ± 0.035.

In the case of GCUGUCACCGGUGCUUGGUACGUUAUAUUCAGCCGGUCUGAUGAGUCUGCACUCAGACGAAACAGC [GCACUC], the “normalized RNA/DNA level without ligand (log10)” value [1] is reported as 2.022 ± 0.0041 and the “normalized RNA/DNA level with ligand (log10)” value [2] is reported as 2.022 ± 0.0086.

For GCUGUCACCGGUGCUUGGUACGUUAUAUUCAGCCGGUCUGAUGAGUCUCAGCGGAGACGAAACAGC [CAGCGG], the “normalized RNA/DNA level without ligand (log10)” value [1] was 1.984 ± 0.0099 and the “normalized RNA/DNA level with ligand (log10)” value [2] was 2.06 ± 0.029.

With GCUGUCACCGGUGCUUGGUACGUUAUAUUCAGCCGGUCUGAUGAGUCUUUCAGUAGACGAAACAGC [UUCAGU] the “normalized RNA/DNA level without ligand (log10)” value [1] was 1.9849 ± 0.0019 and the “normalized RNA/DNA level with ligand (log10)” value [2] was 2.01 ± 0.043.

For GCUGUCACCGGUGCUUGGUACGUUAUAUUCAGCCGGUCUGAUGAGUCUCGGUGCAGACGAAACAGC [CGGUGC], the “normalized RNA/DNA level without ligand (log10)” value [1] was 2.053 ± 0.0063 and the “normalized RNA/DNA level with ligand (log10)” value [2] was 2.007 ± 0.0042.

In the case of GCUGUCACCGGUGCUUGGUACGUUAUAUUCAGCCGGUCUGAUGAGUCUCAGGAGAGACGAAACAGC [CAGGAG], the “normalized RNA/DNA level without ligand (log10)” value [1] is reported as 1.92 ± 0.022 and the “normalized RNA/DNA level with ligand (log10)” value [2] is reported as 2.03 ± 0.03.

With GCUGUCACCGGUGCUUGGUACGUUAUAUUCAGCCGGUCUGAUGAGUCUUCACAGAGACGAAACAGC [UCACAG] the “normalized RNA/DNA level without ligand (log10)” value [1] was 1.9 ± 0.0082 and the “normalized RNA/DNA level with ligand (log10)” value [2] was 1.979 ± 0.012.

GCUGUCACCGGUGCUUGGUACGUUAUAUUCAGCCGGUCUGAUGAGUCUCCUACCAGACGAAACAGC [CCUACC] was tested, and the “normalized RNA/DNA level without ligand (log10)” value [1] was 2.0594 ± 0.00016 and the “normalized RNA/DNA level with ligand (log10)” value [2] was 2.04 ± 0.041.

With GCUGUCACCGGUGCUUGGUACGUUAUAUUCAGCCGGUCUGAUGAGUCUACAUAGAGACGAAACAGC [ACAUAG] the “normalized RNA/DNA level without ligand (log10)” value [1] was 1.935 ± 0.013 and the “normalized RNA/DNA level with ligand (log10)” value [2] was 2.02 ± 0.021.

In the case of GCUGUCACCGGUGCUUGGUACGUUAUAUUCAGCCGGUCUGAUGAGUCUAGCGUCAGACGAAACAGC [AGCGUC], the “normalized RNA/DNA level without ligand (log10)” value [1] is reported as 2.083 ± 0.0033 and the “normalized RNA/DNA level with ligand (log10)” value [2] is reported as 2.06 ± 0.037.

GCUGUCACCGGUGCUUGGUACGUUAUAUUCAGCCGGUCUGAUGAGUCUACGCGGAGACGAAACAGC [ACGCGG] was tested, and the “normalized RNA/DNA level without ligand (log10)” value [1] was 1.965 ± 0.004 and the “normalized RNA/DNA level with ligand (log10)” value [2] was 2.03 ± 0.066.

With GCUGUCACCGGUGCUUGGUACGUUAUAUUCAGCCGGUCUGAUGAGUCUGAGUUUAGACGAAACAGC [GAGUUU] the “normalized RNA/DNA level without ligand (log10)” value [1] was 2 ± 0.02 and the “normalized RNA/DNA level with ligand (log10)” value [2] was 2.01 ± 0.037.

GCUGUCACCGGUGCUUGGUACGUUAUAUUCAGCCGGUCUGAUGAGUCUGCAGCCAGACGAAACAGC [GCAGCC] was tested, and the “normalized RNA/DNA level without ligand (log10)” value [1] was 2 ± 0.024 and the “normalized RNA/DNA level with ligand (log10)” value [2] was 2.02 ± 0.025.

GCUGUCACCGGUGCUUGGUACGUUAUAUUCAGCCGGUCUGAUGAGUCUACUAAUAGACGAAACAGC [ACUAAU] was tested, and the “normalized RNA/DNA level without ligand (log10)” value [1] was 1.985 ± 0.007 and the “normalized RNA/DNA level with ligand (log10)” value [2] was 2.01 ± 0.03.

In the case of GCUGUCACCGGUGCUUGGUACGUUAUAUUCAGCCGGUCUGAUGAGUCUGUAUUGAGACGAAACAGC [GUAUUG], the “normalized RNA/DNA level without ligand (log10)” value [1] is reported as 1.9409 ± 0.00012 and the “normalized RNA/DNA level with ligand (log10)” value [2] is reported as 2.003 ± 0.0063.

With GCUGUCACCGGUGCUUGGUACGUUAUAUUCAGCCGGUCUGAUGAGUCUCGCUAAAGACGAAACAGC [CGCUAA] the “normalized RNA/DNA level without ligand (log10)” value [1] was 1.97 ± 0.019 and the “normalized RNA/DNA level with ligand (log10)” value [2] was 1.99 ± 0.055.

In the case of GCUGUCACCGGUGCUUGGUACGUUAUAUUCAGCCGGUCUGAUGAGUCUACGACUAGACGAAACAGC [ACGACU], the “normalized RNA/DNA level without ligand (log10)” value [1] is reported as 1.997 ± 0.0037 and the “normalized RNA/DNA level with ligand (log10)” value [2] is reported as 2.006 ± 0.017.

For GCUGUCACCGGUGCUUGGUACGUUAUAUUCAGCCGGUCUGAUGAGUCUUACACCAGACGAAACAGC [UACACC], the “normalized RNA/DNA level without ligand (log10)” value [1] was 2.025 ± 0.011 and the “normalized RNA/DNA level with ligand (log10)” value [2] was 1.99 ± 0.048.

With GCUGUCACCGGUGCUUGGUACGUUAUAUUCAGCCGGUCUGAUGAGUCUUUGUCAAGACGAAACAGC [UUGUCA] the “normalized RNA/DNA level without ligand (log10)” value [1] was 1.976 ± 0.015 and the “normalized RNA/DNA level with ligand (log10)” value [2] was 2.042 ± 0.0095.

GCUGUCACCGGUGCUUGGUACGUUAUAUUCAGCCGGUCUGAUGAGUCUUCUAUGAGACGAAACAGC [UCUAUG] was tested, and the “normalized RNA/DNA level without ligand (log10)” value [1] was 1.832 ± 0.017 and the “normalized RNA/DNA level with ligand (log10)” value [2] was 2.022 ± 0.0024.

For GCUGUCACCGGUGCUUGGUACGUUAUAUUCAGCCGGUCUGAUGAGUCUCGCCAAAGACGAAACAGC [CGCCAA], the “normalized RNA/DNA level without ligand (log10)” value [1] was 1.973 ± 0.014 and the “normalized RNA/DNA level with ligand (log10)” value [2] was 2.02 ± 0.048.
